Article PMC10725492 (Translational Psychiatry, 2023)
No end group written: not given here. *: point of attachment. Palmitoyl = CCCCCCCCCCCCCCCC(=O)*

Target: T1, recombinant APP N-terminal (18-612) fragment (UniProt P05067-4 18-612)
T1 construct: also called APP18-612; N-terminal APP; source: expressed by KMD Bioscience
Assay: SPR
Details: both partners purified

T1 sequence (P05067 other isoform, or with tags, fused parts or gaps): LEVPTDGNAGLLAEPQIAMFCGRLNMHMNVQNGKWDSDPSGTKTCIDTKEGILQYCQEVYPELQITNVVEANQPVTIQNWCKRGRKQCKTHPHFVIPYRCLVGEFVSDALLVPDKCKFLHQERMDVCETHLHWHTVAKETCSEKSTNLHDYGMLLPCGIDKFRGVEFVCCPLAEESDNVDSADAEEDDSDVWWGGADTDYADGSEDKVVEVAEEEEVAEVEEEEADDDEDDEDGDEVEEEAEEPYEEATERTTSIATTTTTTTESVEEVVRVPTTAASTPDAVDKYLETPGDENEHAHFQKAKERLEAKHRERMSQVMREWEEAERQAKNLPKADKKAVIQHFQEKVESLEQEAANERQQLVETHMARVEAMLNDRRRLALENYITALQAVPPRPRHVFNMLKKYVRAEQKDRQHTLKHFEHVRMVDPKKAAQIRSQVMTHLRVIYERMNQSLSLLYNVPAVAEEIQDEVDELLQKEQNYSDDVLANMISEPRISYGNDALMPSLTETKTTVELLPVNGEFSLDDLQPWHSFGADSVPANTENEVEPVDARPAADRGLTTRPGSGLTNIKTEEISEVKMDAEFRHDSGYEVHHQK

B1: AY51 peptide (peptide)
chain: KKKKKKLKVRLASHLRK(Palmitoyl)ELRKRLLRDA
modifications: not fully specified
With B1 the Kd was 554 nM.
